The Kd is the free concentration of one partner at which half of the binding sites on the other are occupied at equilibrium, for simple one-to-one binding. A word on the koff: it is a measure of how fast the partners let go of each other. The term kon denotes a measure of how fast the partners come together.

Experiment [1] deals with T1, refolded recombinant HLA-A*11:01 monomer (peptide-HLA complex) (Homo sapiens, HLA-A*11:01, strain, also: biotinylated in vitro by biotin ligase, peptide-HLA complex).
T1 construct: HLA-A*11:01 α chain, human, extracellular portion; human beta-2-microglobulin (β2m); the peptide of the crystallised complex is in PDB 6ID4; The methods describe one preparation (biotinylated) for all HLA monomers; copies: + +
T1 chain 1: not shown
T1 chain 2: not shown
T1 chain 3: AIFQSSMTK
The experiment can be described thus: quartz crystal microbalance (QCM); Attana Cell A200, 25 °C, PBS running buffer; biotinylated refolded HLA-A*11:01 held on a streptavidin-saturated LNB-carboxyl chip; 2E3-IgG1 injected at 2.5 to 20 nM, single cycle kinetics. As to conditions: both partners purified.

Experiment [2] addresses T2, HLA-A*01:01 on One Lambda LABScreen Single Antigen beads (Homo sapiens, HLA-A*01:01, strain).
T2 construct: HLA-A*01:01 α chain, human; human beta-2-microglobulin; β2m and peptide are surmised for a class I HLA antigen; source: bought: One Lambda Inc. (LABScreen Single Antigen HLA Class I beads); copies: + +
The experiment can be described thus: One Lambda LABScreen Single Antigen bead assay (OL-SAB), HLA Class I; 2E3-IgG1 at 1 μg mL^−1, diluted 20× in negative control serum; HLA antigens on beads. As to conditions: both partners purified.

Experiment [3] has as its target T3, HLA-A*36:01 on One Lambda LABScreen Single Antigen beads (Homo sapiens, HLA-A*36:01, strain).
T3 construct: HLA-A*36:01 α chain, human; human beta-2-microglobulin; β2m and peptide are surmised for a class I HLA antigen; source: bought: One Lambda Inc. (LABScreen Single Antigen HLA Class I beads); copies: + +
The experiment is described as above. The following applies: both partners purified.

The target in experiment [4] is T4, HLA-A*34:02 on One Lambda LABScreen Single Antigen beads (Homo sapiens, HLA-A*34:02, strain).
T4 construct: HLA-A*34:02 α chain, human; human beta-2-microglobulin; β2m and peptide are surmised for a class I HLA antigen; source: bought: One Lambda Inc. (LABScreen Single Antigen HLA Class I beads); copies: + +
Described as above. As to conditions: both partners purified.

For experiment [5], the target named is T5, HLA-A*34:01 on One Lambda LABScreen Single Antigen beads (Homo sapiens, HLA-A*34:01, strain).
T5 construct: HLA-A*34:01 α chain, human; human beta-2-microglobulin; β2m and peptide are surmised for a class I HLA antigen; source: bought: One Lambda Inc. (LABScreen Single Antigen HLA Class I beads); copies: + +
The description is as above. As to conditions: both partners purified.

The target in experiment [6] is T6, HLA-A*25:01 on One Lambda LABScreen Single Antigen beads (Homo sapiens, HLA-A*25:01, strain).
T6 construct: HLA-A*25:01 α chain, human; human beta-2-microglobulin; β2m and peptide are surmised for a class I HLA antigen; source: bought: One Lambda Inc. (LABScreen Single Antigen HLA Class I beads); copies: + +
The description is as above. As to conditions: both partners purified.

Experiment [7] concerns the target T7, HLA-A*26:01 on One Lambda LABScreen Single Antigen beads (Homo sapiens, HLA-A*26:01, strain).
T7 construct: HLA-A*26:01 α chain, human; human beta-2-microglobulin; β2m and peptide are surmised for a class I HLA antigen; source: bought: One Lambda Inc. (LABScreen Single Antigen HLA Class I beads); copies: + +
Described as above. The following applies: both partners purified.

In experiment [8] the target is T8, HLA-A*80:01 on One Lambda LABScreen Single Antigen beads (Homo sapiens, HLA-A*80:01, strain).
T8 construct: HLA-A*80:01 α chain, human; human beta-2-microglobulin; β2m and peptide are surmised for a class I HLA antigen; source: bought: One Lambda Inc. (LABScreen Single Antigen HLA Class I beads); copies: + +
The description is as above. As to conditions: both partners purified.

In experiment [9] the target is T9, HLA-A*66:01 on One Lambda LABScreen Single Antigen beads (Homo sapiens, HLA-A*66:01, strain).
T9 construct: HLA-A*66:01 α chain, human; has Asp90; human beta-2-microglobulin; β2m and peptide are surmised for a class I HLA antigen; source: bought: One Lambda Inc. (LABScreen Single Antigen HLA Class I beads); copies: + +
Described as above. As to conditions: both partners purified.

The target in experiment [10] is T10, HLA-B*73:01 on One Lambda LABScreen Single Antigen beads (Homo sapiens, HLA-B*73:01, strain).
T10 construct: HLA-B*73:01 α chain, human; human beta-2-microglobulin; β2m and peptide are surmised for a class I HLA antigen; source: bought: One Lambda Inc. (LABScreen Single Antigen HLA Class I beads); copies: + +
The description is as above. As to conditions: both partners purified.

Experiment [11] concerns the target T11, HLA-A*11:01 on One Lambda LABScreen Single Antigen beads (Homo sapiens, HLA-A*11:01, strain).
T11 construct: HLA-A*11:01 α chain, human; human beta-2-microglobulin; β2m and peptide are surmised for a class I HLA antigen; source: bought: One Lambda Inc. (LABScreen Single Antigen HLA Class I beads); copies: + +
The description is as above. As to conditions: both partners purified.

The target of experiment [12] is T12, HLA-A*43:01 on One Lambda LABScreen Single Antigen beads (Homo sapiens, HLA-A*43:01, strain).
T12 construct: HLA-A*43:01 α chain, human; human beta-2-microglobulin; β2m and peptide are surmised for a class I HLA antigen; source: bought: One Lambda Inc. (LABScreen Single Antigen HLA Class I beads); copies: + +
The description is as above. As to conditions: both partners purified.

Experiment [13] has as its target T1, refolded recombinant HLA-A*11:01 …. The experiment can be described thus: ELISA; affinity determination: streptavidin-coated plate, increasing concentrations of biotinylated antigen (16 h) and of primary antibody (8 h), room temperature; goat-anti-human IgG-HRP. The following applies: both partners purified. For orientation: An ELISA detects its analyte on a solid surface through an enzyme-linked reagent.

The target in experiment [14] is T13, HLA-A*11:01 on the surface of HLA-A*11:01-positive EBV-BCLs (Homo sapiens, HLA-A*11:01, strain).
T13 construct: HLA-A*11:01 α chain, endogenous on Epstein-Barr virus transformed B-cell lines; human beta-2-microglobulin, endogenous; The cells carry other HLA alleles too; also called A*11:01 homozygous EBV-BCLs; HLA-A*11:01 expressing target cell lines; source: endogenous, on HLA-typed EBV-BCLs; copies: + +
Description: flow cytometry on cells; 0.5×10^6 EBV-BCLs with 5 μg mL^−1 mouse chimeric 2E3, 4 °C, 2 h, PBS with 3% FBS; AlexaFluor-488 goat-anti-mouse IgG. As to conditions: one partner purified. (In general: In flow cytometry, cells or beads pass a laser one at a time.)

Ends that are not written are not given here.

B1: human monoclonal alloantibody 2E3, recombinant human IgG1 (antibody, V domains shown)
VH: EVQLVQSGAEVKKPGASVKVSCKASGYTFTGYYMHWVRQAPGQGLEWMGWINPNSGGTSYAQKFQGRVTMTRDTSTSTVYMELSSLRSEDTAVYYCARVTTVIAGPVFDYWGQGTLVTVSS
VL: QAVLTQPSSLSASPGASASLTCTLRSGINVGPYNIYWYQQKPGSPPQYLMRYKSDPDKHQGSAVPSRFSGSKDASANAGILLISGLQSEDEADYYCMIWHNNAWVFGGGTKLTVL
notes: variable region of the 2E3 heavy chain; constant region of human IgG1 from the heavy chain expression vector; full-length 2E3 light chain; IgG1; isolated from a human Fab phage library (Humanyx) by panning on HLA-A*11:01; also called 2E3-IgG1; source: HEK293, cotransfected, purified from culture supernatants (protein G Sepharose)
Turning to B1, the Kd is 10.3 nM in experiment [1] and 0.16 nM in experiment [13]. Moreover, the koff in experiment [1] is 0.00033 s⁻¹. Moreover, in [1], the kon turned out to be 104000 M⁻¹ s⁻¹. The binding result in experiment [2], in [3], in [4], in [5], in [6] and in experiment [7] was “binds” throughout. In addition, the binding result in experiment [8], in experiment [9], in experiment [10], in experiment [11] and in experiment [12] was “binds” each time.

B2: mouse chimeric form of antibody 2E3 (mouse IgG1 constant region) (antibody, V domains shown)
VH: EVQLVQSGAEVKKPGASVKVSCKASGYTFTGYYMHWVRQAPGQGLEWMGWINPNSGGTSYAQKFQGRVTMTRDTSTSTVYMELSSLRSEDTAVYYCARVTTVIAGPVFDYWGQGTLVTVSS
VL: QAVLTQPSSLSASPGASASLTCTLRSGINVGPYNIYWYQQKPGSPPQYLMRYKSDPDKHQGSAVPSRFSGSKDASANAGILLISGLQSEDEADYYCMIWHNNAWVFGGGTKLTVL
notes: variable region of the 2E3 heavy chain; constant region of mouse IgG1 from the heavy chain expression vector; full-length 2E3 light chain; used for flow cytometry, detected with goat-anti-mouse IgG; also called mouse Fc chimeric antibody; source: HEK293, cotransfected, purified from culture supernatants (protein G Sepharose)
B2: the binding result in [14] is “binds”.

The record behind these values is article PMC6385295 (Nature Communications, 2019).
